# Results published in patent publication US8357523B2, “Beta-glucosidase variant enzymes and related polynucleotides” (Codexis, Inc., priority 2009, dated 2013).
# Substitutions are numbered along the chain they refer to.
# B1: 134 (protein)
# chain: STAIAQEGAAPAAILHPEKWPRPATQRLIDPAVEKRVDALLKQLSVEEKVGQVIQGDIGTITPEDLRKYPLGSILAGGNSGPNGDDRAPPKEWLDLADAFYRVSLEKRPGHTPIPVLFGIDAVHGHGKIGSATIFPHNIALGMTRDPELLRRIGEVTAEEMAATGIDWTFAPCLSVVRDDRWGRTYEGFSEDPEIVAAYSPAIVEGVQGKYGSKDFMAVGRIVASAKHFLADGGTDQGRDQGDARISEDELIRIHNAGYPPAIDAGVLTVMASFSSWQGIKHHGHKQLLTDVLKGQMGFNGFIVGDWNAHDQVPGCTKFNCPTSLIAGLDMYMAADSWKQLYENTLAQVKDGTIPMARLDDAVRRILRVKVLAGLFEKPAPKDRPGLPGLETLGSPEHRAVGREAVRKSLVLLKNDKGTLPLSPKARVLVAGDGADNIGKQSGGWTISWQGTGNRNDEFPGATSILGGIRDAVADAGGSVEFDVAGQYKTKPDVAIVVFGEEPYAEFQGDVETLEYQPDQKQDLALLKKLKDQGIPVVAVFLSGRPMWVNPELNASDAFVAAWLPGTEGGGVADVLFTDKAGKVQHDFAGKLSYSWPRTAAQTTVNRGDADYNPLFAYGYGLTYKDKSKVGTLPEESGVPAEARQNAGIYFRAGALRLPGRFL
# B2: 147 (protein)
# chain: B1 chain with N79D, M143A, E159V, A198S, P201A, V219P, I222S
# B3: 153 (protein)
# chain: B1 chain with N79D, E92V, E159V, C173A, V219P, I222S, S225C
# B4: 149 (protein)
# chain: B1 chain with N79D, M143A, D146S, E159Q, C173A, V219P, S225C
# B5: 136 (protein)
# chain: B1 chain with E159Q, C173A, A198S, P201A, V219P, I222A, S225C, M297I, Q487R
# B6: 144 (protein)
# chain: B1 chain with M143A, E159V, A162T, C173A, A198S, P201A, S225C
# B7: 141 (protein)
# chain: B1 chain with K128N, E159V, C173A, P201A, S225C
# B8: 152 (protein)
# chain: B1 chain with N79D, K128N, M143A, E159Q, C173A, V219P, I222A, S225C
# B9: 154 (protein)
# chain: B1 chain with K128N, E159Q, C173A, V219P, I222A, S225C, F229I
# B10: 148 (protein)
# chain: B1 chain with N79D, K128N, M143A, C173A, A198S, P201A, Y211F, V219P, S225C
# B11: 139 (protein)
# chain: B1 chain with K128N, E159V, A162T, C173A, P201A, V219P, S225C
# B12: 155 (protein)
# chain: B1 chain with N79D, K128N, M143A, E159V, C173A, A198S, P201A, Y211F, V219P, S225C
# B13: 142 (protein)
# chain: B1 chain with N79D, M143A, E159V, C173A, Y211F, K491R
# B14: 138 (protein)
# chain: B1 chain with N79D, M143A, D146S, C173A, P201A, V219P, I222S, S225C
# B15: 158 (protein)
# chain: B1 chain with N79D, K128N, M143A, E159V, I166T, C173A, A198S, P201A, V219P, S225C
# B16: 151 (protein)
# chain: B1 chain with K128N, E159V, A162T, A198S, P201A, V219P, L514Q
# B17: 150 (protein)
# chain: B1 chain with N79D, I114V, M143A, E159V, A162T, C173A, A198S, P201A, V219P, S225C
# B18: 143 (protein)
# chain: B1 chain with K128N, E159V, C173A, A198S, P201A, V219P, S225C
# B19: 145 (protein)
# chain: B1 chain with N79D, K128N, M143A, D146S, C173A, A198S, P201A, V219P, S225C
# B20: 74 (protein)
# chain: B1 chain with M143A, E159V, C173A, Y211F, V219P, S225C
# B21: 76 (protein)
# chain: B1 chain with M143A, E159V, C173A, P201A, Y211F, V219P
# B22: 146 (protein)
# chain: B1 chain with N79D, K128N, E159Q, C173A, Y211F, V219P, S225C, K378R
# B23: 140 (protein)
# chain: B1 chain with N79D, K128N, E159Q, C173A, S225C
# B24: 75 (protein)
# chain: B1 chain with K128N, M143A, E159V, C173A, P201A, Y211F, V219P, I222V
# B25: 156 (protein)
# chain: STAIAQEGAAPAAILHPEKWPRPATQRLIDPAVEKRVDALLKQLSVEEKVGQVIQGDIGTITPEDLRKYPLGSILAGGDSGPNGDDRAPPKEWLDLADAFYRVSLEKRPGHTPIPVLFGIDAVHGHGKIGSATIFPHNIALGMTRDPELLRRIGEVTAVEMTATGIDWTFAPALSVVRDDRWGRTYEGFSEDPEIVASYSAAIVEGVQGKFGSKDFMAPGRSVACAKHFLADGGTDRGRDQGDARISEDELIRIHNAGYPPAIDAGVLTVMASFSSWQGIKHHGHKQLLTDVLKGQMGFNGFIVGDWNAHDQVPGCTKFNCPTSLIAGLDMYMAADSWKQLYENTLAQVKDGTIPMARLDDAVRRILRVKVLAGLFEKPAPKDRPGLPGLETLGSPEHRAVGREAVRKSLVLLKNDKGTLPLSPKARVLVAGDGADNIGKQSGGWTISWQGTGNRNDEFPGATSILGGIRDAVADAGGSVEFDVAGQYKTKPDVAIVVFGEEPYAEFQGDVETLEYQPDQKQDLALLKKLKDQGIPVVAVFLSGRPMWVNPELNASDAFVAAWLPGTEGGGVADVLFTDKAGKVQHDFAGKLSYSWPRTAAQTTVNRGDADYNPLFAYGYGLTYKDKSKVGTLPEESGVPAEARQNAGIYFRAGALRLPGRFL
# Assay: High throughput cellobiose assay: fold improvement in cellobiase activity of CelA variants over a control enzyme (Tables 2A-2D, 3, 5, 6, 7)
# Assay type: biochemical
# Conditions: 3.3 g/l cellobiose, 55° C. and pH 6.0
row,Molecule,Fold improvement over Control Variant No. 5 from Table 2A
1,B1,++ (++ = 1.1 to 6 fold improvement over control Variant No. 2)
2,B2,+++ (+++ = 6 to 13 fold improvement over control Variant No. 2)
3,B3,++ (++ = 1.1 to 6 fold improvement over control Variant No. 2)
4,B4,+++ (+++ = 6 to 13 fold improvement over control Variant No. 2)
5,B5,++ (++ = 1.1 to 6 fold improvement over control Variant No. 2)
6,B6,+++ (+++ = 6 to 13 fold improvement over control Variant No. 2)
7,B7,+++ (+++ = 6 to 13 fold improvement over control Variant No. 2)
8,B8,+++ (+++ = 6 to 13 fold improvement over control Variant No. 2)
9,B9,++ (++ = 1.1 to 6 fold improvement over control Variant No. 2)
10,B10,+++ (+++ = 6 to 13 fold improvement over control Variant No. 2)
11,B11,+++ (+++ = 6 to 13 fold improvement over control Variant No. 2)
12,B12,+++ (+++ = 6 to 13 fold improvement over control Variant No. 2)
13,B13,+++ (+++ = 6 to 13 fold improvement over control Variant No. 2)
14,B14,+++ (+++ = 6 to 13 fold improvement over control Variant No. 2)
15,B15,++ (++ = 1.1 to 6 fold improvement over control Variant No. 2)
16,B16,+++ (+++ = 6 to 13 fold improvement over control Variant No. 2)
17,B17,+++ (+++ = 6 to 13 fold improvement over control Variant No. 2)
18,B18,+++ (+++ = 6 to 13 fold improvement over control Variant No. 2)
19,B19,+++ (+++ = 6 to 13 fold improvement over control Variant No. 2)
20,B20,++ (++ = 1.1 to 6 fold improvement over control Variant No. 2)
21,B21,++ (++ = 1.1 to 6 fold improvement over control Variant No. 2)
22,B22,+++ (+++ = 6 to 13 fold improvement over control Variant No. 2)
23,B23,+++ (+++ = 6 to 13 fold improvement over control Variant No. 2)
24,B24,++ (++ = 1.1 to 6 fold improvement over control Variant No. 2)
25,B25,+++ (+++ = 6 to 13 fold improvement over control Variant No. 2)
